Source: PMC12317982

B1: EMC1-FLAG [human] / SLC3A2, Strep-tagged [not stated] (parent)
chain 1: YEDQVGKFDWRQQYVGKVKFASLEFSPGSKKLVVATEKNVIAALNSRTGEILWRHVDKGTAEGAVDAMLLHGQDVITVSNGGRIMRSWETNIGGLNWEITLDSGSFQALGLVGLQESVRYIAVLKKTTLALHHLSSGHLKWVEHLPESDSIHYQMVYSYGSGVVWALGVVPFSHVNIVKFNVEDGEIVQQVRVSTPWLQHLSGACGVVDEAVLVCPDPSSRSLQTLALETEWELRQIPLQSLDLEFGSGFQPRVLPTQPNPVDASRAQFFLHLSPSHYALLQYHYGTLSLLKNFPQTALVSFATTGEKTVAAVMACRNEVQKSSSSEDGSMGSFSEKSSSKDSLACFNQTYTINLYLVETGRRLLDTTITFSLEQSGTRPERLYIQVFLKKDDSVGYRALVQTEDHLLLFLQQLAGKVVLWSREESLAEVVCLEMVDLPLTGAQAELEGEFGKKADGLLGMFLKRLSSQLILLQAWTSHLWKMFYDARKPRSQIKNEINIDTLARDEFNLQKMMVMVTASGKLFGIESSSGTILWKQYLPNVKPDSSFKLMVQRTTAHFPHPPQCTLLVKDKESGMSSLYVFNPIFGKWSQVAPPVLKRPILQSLLLPVMDQDYAKVLLLIDDEYKVTAFPATRNVLRQLHELAPSIFFYLVDAEQGRLCGYRLRKDLTTELSWELTIPPEVQRIVKVKGKRSSEHVHSQGRVMGDRSVLYKSLNPNLLAVVTESTDAHHERTFIGIFLIDGVTGRIIHSSVQKKAKGPVHIVHSENWVVYQYWNTKARRNEFTVLELYEGTEQYNATAFSSLDRPQLPQVLQQSYIFPSSISAMEATITERGITSRHLLIGLPSGAILSLPKALLDPRRPEIPTEQSREENLIPYSPDVQIHAERFINYNQTVSRMRGIYTAPSGLESTCLVVAYGLDIYQTRVYPSKQFDVLKDDYDYVLISSVLFGLVFATMITKRLAQVKLLNRAWR
chain 2: MSQDTEVDMKEVELNELEPEKQPMNAASGAAMSLAGAEKNGLVKIKVAEDEAEAAAAAKFTGLSKEELLKVAGSPGWVRTRWALLLLFWLGWLGMLAGAVVIIVRAPRCRELPAQKWWHTGALYRIGDLQAFQGHGAGNLAGLKGRLDYLSSLKVKGLVLGPIHKNQKDDVAQTDLLQIDPNFGSKEDFDSLLQSAKKKSIRVILDLTPNYRGENSWFSTQVDTVATKVKDALEFWLQAGVDGFQVRDIENLKDASSFLAEWQNITKGFSEDRLLIAGTNSSDLQQILSLLESNKDLLLTSSYLSDSGSTGEHTKSLVTQYLNATGNRWCSWSLSQARLLTSFLPAQLLRLYQLMLFTLPGTPVFSYGDEIGLDAAALPGQPMEAPVMLWDESSFPDIPGAVSANMTVKGQSEDPGSLLSLFRRLSDQRSKERSLLHGDFHAFSAGPGLFSYIRHWDQNERFLVVLNFGDVGLSAGLQASDLPASASLPAKADLLLSTQPGREEGSPLELERLKLEPHEGLLLRFPYAA
B2: EMC1-FLAG [human] / TMEM38B, Strep-tagged [not stated] (parent)
chain 1: B1 chain 1
chain 2: MDSPWDELALAFSRTSMFPFFDIAHYLVSVMAVKRQPGAAALAWKNPISSWFTAMLHCFGGGILSCLLLAEPPLKFLANHTNILLASSIWYITFFCPHDLVSQGYSYLPVQLLASGMKEVTRTWKIVGGVTHANSYYKNGWIVMIAIGWARGAGGTIITNFERLVKGDWKPEGDEWLKMSYPAKVTLLGSVIFTFQHTQHLAISKHNLMFLYTIFIVATKITMMTTQTSTMTFAPFEDTLSWMLFGWQQPFSSCEKKSEAKSPSNGVGSLASKPVDVASDNVKKKHTKKNE
B3: EMC1-FLAG [human] / BCAP31, Strep-tagged [not stated] (parent)
chain 1: B1 chain 1
chain 2: MSLQWTAVATFLYAEVFVVLLLCIPFISPKRWQKIFKSRLVELLVSYGNTFFVVLIVILVLLVIDAVREIRKYDDVTEKVNLQNNPGAMEHFHMKLFRAQRNLYIAGFSLLLSFLLRRLVTLISQQATLLASNEAFKKQAESASEAAKKYMEENDQLKKGAAVDGGKLDVGNAEVKLEEENRSLKADLQKLKDELASTKQKLEKAENQVLAMRKQSEGLTKEYDRLLEEHAKLQAAVDGPMDKKEE

Variants of: B1
Test: co-IP and immunoblot (quantified)
Conditions: with SLC3A2, Strep-tagged;; read off a plot

| ratio to parent | Variant |
| --- | --- |
| 0.51 | chain 1 V941K S944K S945K |
| 0.87 | chain 1 F948A F952A |

Variants of: B2
Test: co-IP and immunoblot (quantified)
Conditions: with TMEM38B, read off a plot

| ratio to parent | Variant |
| --- | --- |
| 0.4 | chain 1 F948A F952A |
| 0.78 | chain 1 V941K S944K S945K |

Variants of: B3
Test: co-IP and immunoblot (quantified)
Conditions: with BCAP31, Strep-tagged;; read off a plot

| ratio to parent | Variant |
| --- | --- |
| 0.75 | chain 1 F948A F952A |
| 0.57 | chain 1 V941K S944K S945K |
